The results in this text go back to article PMC2819549.

Where two headings read alike, the source gives them in different places.

In experiment [1] the target is human cytochrome P450 3A4 (CYP3A4), wild type, His-tagged (human) (UniProt P08684).
For experiment [2] the target is unchanged. In words: UV-Vis absorbance.
The target is the same in experiment [3]. Put plainly: UV-Vis absorbance. This is another data set of the same source.
Experiment [4] shares this target. Put plainly: UV-Vis absorbance. This is another data set of the same source.

With “flavin domain of cytochrome P450BM-3 from Bacillus megaterium (BMR) (domain or fragment)”, in experiment [1], the total reducibility of CYP3A4 by BMR; CYP3A4-ND, with 1-PB was determined as 91%; the total reducibility of CYP3A4 by BMR; CYP3A4-ND, with ANF worked out at 79%; the total reducibility of CYP3A4 by BMR; proteoliposomes LPS-76, no substrate is 55%; the total reducibility of CYP3A4 by BMR; proteoliposomes LPS-76, with ANF turned out to be 47%. In experiment [1], the total reducibility of CYP3A4 by BMR; proteoliposomes LPS-910, no substrate came to 83% and the total reducibility of CYP3A4 by BMR; proteoliposomes LPS-910, with ANF was found to be 85%. In experiment [2], this substance returned a Kd of 140 nM and a stoichiometry N of 1. In experiment [3], the stoichiometry N is 1. Further, the Kd in experiment [4] is 100 nM.

Broadly, the Kd is the equilibrium constant for the complex coming apart. Read a high Kd as a looser complex. Broadly, the stoichiometry N is a count of units in the complex or per binding partner.
